Where a chain is given by its changes, count along the chain named.
B1: CE115HA000/GLS3000 N30E (antibody, IgG1, name in Kabat numbering, V domains shown)
VH: QVQLVESGGGVVQPGRSLRLSCAASGFTFSNAWMHWVRQAPGKGLEWVAQIKAKSNNYATYYAESVKGRFTISRDDSKNSLYLQMNSLKTEDTAVYYCRYVHYGAYYGVDAWGQGTTVTVSS
VL: DIVMTQSPLSLPVTPGEPASISCRSSQSLVHSNRETYLHWYQQKPGQAPRLLIYKVSNRFSGVPDRFSGSGSGTDFTLKISRVEAEDVGVYYCGQGTQVPYTFGQGTKLEIK
notes: one-arm IgG1
B2: CE115HA000/GLS3000 Q90D (antibody, IgG1, name in Kabat numbering, V domains shown)
VH: B1 VH
VL: B1 VL with E35N, Q95D
notes: one-arm IgG1
B3: CE115HA000/GLS3000 P95S (antibody, IgG1, name in Kabat numbering, V domains shown)
VH: B1 VH
VL: B1 VL with E35N, P100S
notes: one-arm IgG1
B4: CE115HA000/GLS3000 N30K (antibody, IgG1, name in Kabat numbering, V domains shown)
VH: B1 VH
VL: B1 VL with E35K
notes: one-arm IgG1
B5: CE115HA000/GLS3000 N30T (antibody, IgG1, name in Kabat numbering, V domains shown)
VH: B1 VH
VL: B1 VL with E35T
notes: one-arm IgG1
B6: CE115HA000/GLS3000 N30M (antibody, IgG1, name in Kabat numbering, V domains shown)
VH: B1 VH
VL: B1 VL with E35M
notes: one-arm IgG1
B7: CE115HA000/GLS3000 N53I (antibody, IgG1, name in Kabat numbering, V domains shown)
VH: B1 VH
VL: B1 VL with E35N, N58I
notes: one-arm IgG1
B8: CE115HA000/GLS3000 Q27D (antibody, IgG1, name in Kabat numbering, V domains shown)
VH: B1 VH
VL: B1 VL with Q27D, E35N
notes: one-arm IgG1
B9: CE115HA000/GLS3000 N53W (antibody, IgG1, name in Kabat numbering, V domains shown)
VH: B1 VH
VL: B1 VL with E35N, N58W
notes: one-arm IgG1
B10: CE115HA000/GLS3000 N30V (antibody, IgG1, name in Kabat numbering, V domains shown)
VH: B1 VH
VL: B1 VL with E35V
notes: one-arm IgG1
B11: CE115HA000/GLS3000 N53H (antibody, IgG1, name in Kabat numbering, V domains shown)
VH: B1 VH
VL: B1 VL with E35N, N58H
notes: one-arm IgG1
B12: CE115HA000/GLS3000 Q90E (antibody, IgG1, name in Kabat numbering, V domains shown)
VH: B1 VH
VL: B1 VL with E35N, Q95E
notes: one-arm IgG1
B13: CE115HA000/GLS3000 N30Q (antibody, IgG1, name in Kabat numbering, V domains shown)
VH: B1 VH
VL: B1 VL with E35Q
notes: one-arm IgG1
B14: CE115HA000/GLS3000 N30I (antibody, IgG1, name in Kabat numbering, V domains shown)
VH: B1 VH
VL: B1 VL with E35I
notes: one-arm IgG1
B15: CE115HA000/GLS3000 N30Y (antibody, IgG1, name in Kabat numbering, V domains shown)
VH: B1 VH
VL: B1 VL with E35Y
notes: one-arm IgG1
B16: CE115HA000/GLS3000 N53G (antibody, IgG1, name in Kabat numbering, V domains shown)
VH: B1 VH
VL: B1 VL with E35N, N58G
notes: one-arm IgG1
B17: CE115HA000/GLS3000 Q90A (antibody, IgG1, name in Kabat numbering, V domains shown)
VH: B1 VH
VL: B1 VL with E35N, Q95A
notes: one-arm IgG1
B18: CE115HA000/GLS3000 N30P (antibody, IgG1, name in Kabat numbering, V domains shown)
VH: B1 VH
VL: B1 VL with E35P
notes: one-arm IgG1
B19: CE115HA000/GLS3000 N30G (antibody, IgG1, name in Kabat numbering, V domains shown)
VH: B1 VH
VL: B1 VL with E35G
notes: one-arm IgG1
B20: CE115HA000/GLS3000 N53Q (antibody, IgG1, name in Kabat numbering, V domains shown)
VH: B1 VH
VL: B1 VL with E35N, N58Q
notes: one-arm IgG1
B21: CE115HA000/GLS3000 N30W (antibody, IgG1, name in Kabat numbering, V domains shown)
VH: B1 VH
VL: B1 VL with E35W
notes: one-arm IgG1
B22: CE115HA000/GLS3000 Q27R (antibody, IgG1, name in Kabat numbering, V domains shown)
VH: B1 VH
VL: B1 VL with Q27R, E35N
notes: one-arm IgG1
B23: CE115HA000/GLS3000 N53R (antibody, IgG1, name in Kabat numbering, V domains shown)
VH: B1 VH
VL: B1 VL with E35N, N58R
notes: one-arm IgG1
B24: CE115HA000/GLS3000 Q27E (antibody, IgG1, name in Kabat numbering, V domains shown)
VH: B1 VH
VL: B1 VL with Q27E, E35N
notes: one-arm IgG1
B25: CE115HA000/GLS3000 N30R (antibody, IgG1, name in Kabat numbering, V domains shown)
VH: B1 VH
VL: B1 VL with E35R
notes: one-arm IgG1
B26: CE115HA000/GLS3000 N53M (antibody, IgG1, name in Kabat numbering, V domains shown)
VH: B1 VH
VL: B1 VL with E35N, N58M
notes: one-arm IgG1
B27: CE115HA000/GLS3000 N53F (antibody, IgG1, name in Kabat numbering, V domains shown)
VH: B1 VH
VL: B1 VL with E35N, N58F
notes: one-arm IgG1
B28: CE115HA000/GLS3000 P95D (antibody, IgG1, name in Kabat numbering, V domains shown)
VH: B1 VH
VL: B1 VL with E35N, P100D
notes: one-arm IgG1
B29: CE115HA000/GLS3000 Q27L (antibody, IgG1, name in Kabat numbering, V domains shown)
VH: B1 VH
VL: B1 VL with Q27L, E35N
notes: one-arm IgG1
B30: CE115HA000/GLS3000 N53P (antibody, IgG1, name in Kabat numbering, V domains shown)
VH: B1 VH
VL: B1 VL with E35N, N58P
notes: one-arm IgG1
B31: CE115HA000/GLS3000 P95A (antibody, IgG1, name in Kabat numbering, V domains shown)
VH: B1 VH
VL: B1 VL with E35N, P100A
notes: one-arm IgG1
B32: CE115HA000/GLS3000 N53T (antibody, IgG1, name in Kabat numbering, V domains shown)
VH: B1 VH
VL: B1 VL with E35N, N58T
notes: one-arm IgG1
B33: CE115HA000/GLS3000 N53K (antibody, IgG1, name in Kabat numbering, V domains shown)
VH: B1 VH
VL: B1 VL with E35N, N58K
notes: one-arm IgG1
B34: CE115HA000/GLS3000 N53D (antibody, IgG1, name in Kabat numbering, V domains shown)
VH: B1 VH
VL: B1 VL with E35N, N58D
notes: one-arm IgG1
B35: CE115HA000/GLS3000 N30L (antibody, IgG1, name in Kabat numbering, V domains shown)
VH: B1 VH
VL: B1 VL with E35L
notes: one-arm IgG1
B36: CE115HA000/GLS3000 N53L (antibody, IgG1, name in Kabat numbering, V domains shown)
VH: B1 VH
VL: B1 VL with E35N, N58L
notes: one-arm IgG1
B37: CE115HA000/GLS3000 P95E (antibody, IgG1, name in Kabat numbering, V domains shown)
VH: B1 VH
VL: B1 VL with E35N, P100E
notes: one-arm IgG1
B38: CE115HA000/GLS3000 N53A (antibody, IgG1, name in Kabat numbering, V domains shown)
VH: B1 VH
VL: B1 VL with E35N, N58A
notes: one-arm IgG1
B39: CE115HA000/GLS3000 N30S (antibody, IgG1, name in Kabat numbering, V domains shown)
VH: B1 VH
VL: B1 VL with E35S
notes: one-arm IgG1
B40: CE115HA000/GLS3000 N53V (antibody, IgG1, name in Kabat numbering, V domains shown)
VH: B1 VH
VL: B1 VL with E35N, N58V
notes: one-arm IgG1
B41: CE115HA000/GLS3000 P95G (antibody, IgG1, name in Kabat numbering, V domains shown)
VH: B1 VH
VL: B1 VL with E35N, P100G
notes: one-arm IgG1
B42: CE115HA000/GLS3000 N53S (antibody, IgG1, name in Kabat numbering, V domains shown)
VH: B1 VH
VL: B1 VL with E35N, N58S
notes: one-arm IgG1
B43: CE115HA000/GLS3000 N53Y (antibody, IgG1, name in Kabat numbering, V domains shown)
VH: B1 VH
VL: B1 VL with E35N, N58Y
notes: one-arm IgG1
B44: CE115HA000/GLS3000 N30H (antibody, IgG1, name in Kabat numbering, V domains shown)
VH: B1 VH
VL: B1 VL with E35H
notes: one-arm IgG1
B45: CE115HA000/GLS3000 N53E (antibody, IgG1, name in Kabat numbering, V domains shown)
VH: B1 VH
VL: B1 VL with E35N, N58E
notes: one-arm IgG1
B46: CE115HA000/GLS3000 P95L (antibody, IgG1, name in Kabat numbering, V domains shown)
VH: B1 VH
VL: B1 VL with E35N, P100L
notes: one-arm IgG1
B47: CE115HA000/GLS3000 Q27P (antibody, IgG1, name in Kabat numbering, V domains shown)
VH: B1 VH
VL: B1 VL with Q27P, E35N
notes: one-arm IgG1

The binders below were run against T1, CD3 epsilon homodimer protein (UniProt P07766 23-126) (assay: SPR, antibody over immobilised CD3e homodimer;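 note: SPR at 25 °C with CD3 epsilon homodimer amine-coupled to a CM4 sensor chip and antibody flowed over as analyte in HBS-EP+ running buffer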).
T1 construct: also called CD3 (CD3 epsilon)
T1 sequence (P07766 23-126): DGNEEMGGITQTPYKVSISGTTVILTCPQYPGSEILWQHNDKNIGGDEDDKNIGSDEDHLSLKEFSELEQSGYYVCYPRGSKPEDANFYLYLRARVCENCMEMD
Description: An appropriate amount of CD3 epsilon homodimer protein was immobilized onto Sensor chip CM4 (GE Healthcare Japan Corp.) by the amine coupling method. Then, the antibody having an appropriate concentration was injected thereto as an analyte and allowed to interact with the CD3 epsilon homodimer protein on the sensor chip. Then, the sensor chip was regenerated by the injection of 10 mmol/L glycine-HCl (pH 1.5). The assay was conducted at 25 degrees C., and HBS-EP+(GE Healthcare Japan Corp.) was used as a running buffer. […] Each parameter was calculated using Biacore T200 Evaluation Software (GE Healthcare Japan Corp.).

KD ratio to GLS3000 | Binder
2.83 | B1
11.1 | B2
1.19 | B3
1.35 | B4
12.7 | B5
1.2 | B6
2.69 | B7
0.89 | B8
1.01 | B9
2.62 | B10
1.31 | B11
0.91 | B12
1 | B13
1.24 | B14
1.03 | B15
1.33 | B16
0.89 | B17
12.1 | B18
2.1 | B19
1.28 | B20
0.97 | B21
1.06 | B22
1.56 | B23
0.99 | B24

KD ratio to GLS3000 | Binder
1.73 | B25
1.21 | B26
0.96 | B27
2.37 | B28
0.86 | B29
0.98 | B30
0.87 | B31
2.68 | B32
1.05 | B33
2.8 | B34
1.19 | B35
1.62 | B36
1.01 | B37
0.82 | B38
10.6 | B39
2.14 | B40
1.94 | B41
0.88 | B42
0.99 | B43
1.08 | B44
2.47 | B45
11.7 | B46
2.16 | B47
